# Like-named read-outs stand apart in the source and are kept apart here.
# Experiments:
# Experiment in all cases: single-molecule TIRF microscopy
# [1] = molecular target: Taxol-stabilized rhodamine-labeled biotinylated microtubules (bovine) (UniProt Q6B856)
# [2] = molecular target: Taxol-stabilized rhodamine-labeled biotinylated microtubules (bovine) (UniProt Q6B856); remark: listed apart in the source
# [3] = molecular target: Taxol-stabilized rhodamine-labeled biotinylated microtubules (bovine) (UniProt Q6B856); remark: listed apart in the source
# [4] = molecular target: Taxol-stabilized rhodamine-labeled biotinylated microtubules (bovine) (UniProt Q6B856); remark: listed apart in the source
# [5] = molecular target: Taxol-stabilized rhodamine-labeled biotinylated microtubules (bovine) (UniProt Q6B856); remark: listed apart in the source
# [6] = molecular target: Taxol-stabilized rhodamine-labeled biotinylated microtubules (bovine) (UniProt Q6B856); remark: listed apart in the source
# [7] = molecular target: Taxol-stabilized rhodamine-labeled biotinylated microtubules (bovine) (UniProt Q6B856); remark: listed apart in the source
# [8] = molecular target: Taxol-stabilized rhodamine-labeled biotinylated microtubules (bovine) (UniProt Q6B856); remark: listed apart in the source
# [9] = molecular target: Taxol-stabilized rhodamine-labeled biotinylated microtubules (bovine) (UniProt Q6B856); remark: listed apart in the source
# [10] = molecular target: Taxol-stabilized rhodamine-labeled biotinylated microtubules (bovine) (UniProt Q6B856); remark: listed apart in the source
# [11] = molecular target: Taxol-stabilized rhodamine-labeled biotinylated microtubules (bovine) (UniProt Q6B856); remark: listed apart in the source
# [12] = molecular target: Taxol-stabilized rhodamine-labeled biotinylated microtubules (bovine) (UniProt Q6B856); remark: listed apart in the source
binder,measurement,setting,value
GFP-tagged Kif4A (natural protein) MKEEVKGIPVRVALRCRPLVPKEISEGCQMCLSFVPGEPQVVVGTDKSFTYDFVFDPSTEQEEVFNTAVAPLIKGVFKGYNATVLAYGQTGSGKTYSMGGAYTAEQENEPTVGVIPRVIQLLFKEIDKKSDFEFTLKVSYLEIYNEEILDLLCPSREKAQINIREDPKEGIKIVGLTEKTVLVALDTVSCLEQGNNSRTVASTAMNSQSSRSHAIFTISLEQRKKSDKNSSFRSKLHLVDLAGSERQKKTKAEGDRLKEGININRGLLCLGNVISALGDDKKGGFVPYRDSKLTRLLQDSLGGNSHTLMIACVSPADSNLEETLNTLRYADRARKIKNKPIVNIDPQTAELNHLKQQVQQLQVLLLQAHGGTLPGSITVEPSENLQSLMEKNQSLVEENEKLSRGLSEAAGQTAQMLERIILTEQANEKMNAKLEELRQHAACKLDLQKLVETLEDQELKENVEIICNLQQLITQLSDETVACMAAAIDTAVEQEAQVETSPETSRSSDAFTTQHALRQAQMSKELVELNKALALKEALARKMTQNDSQLQPIQYQYQDNIKELELEVINLQKEKEELVLELQTAKKDANQAKLSERRRKRLQELEGQIADLKKKLNEQSKLLKLKESTERTVSKLNQEIRMMKNQRVQLMRQMKEDAEKFRQWKQKKDKEVIQLKERDRKRQYELLKLERNFQKQSNVLRRKTEEAAAANKRLKDALQKQREVADKRKETQSRGMEGTAARVKNWLGNEIEVMVSTEEAKRHLNDLLEDRKILAQDVAQLKEKKESGENPPPKLRRRTFSLTEVRGQVSESEDSITKQIESLETEMEFRSAQIADLQQKLLDAESEDRPKQRWENIATILEAKCALKYLIGELVSSKIQVSKLESSLKQSKTSCADMQKMLFEERNHFAEIETELQAELVRMEQQHQEKVLYLLSQLQQSQMAEKQLEESVSEKEQQLLSTLKCQDEELEKMREVCEQNQQLLRENEIIKQKLTLLQVASRQKHLPKDTLLSPDSSFEYVPPKPKPSRVKEKFLEQSMDIEDLKYCSEHSVNEHEDGDGDDDEGDDEEWKPTKLVKVSRKNIQGCSCKGWCGNKQCGCRKQKSDCGVDCCCDPTKCRNRQQGKDSLGTVERTQDSEGSFKLEDPTEVTPGLSFFNPVCATPNSKILKEMCDVEQVLSKKTPPAPSPFDLPELKHVATEYQENKAPGKKKKRALASNTSFFSGCSPIEEEAH,lifetime on the microtubule (median),[1],7.2 s
same,lifetime on the microtubule (median),[2],8.3 s
same,lifetime on the microtubule (median),[3],2.1 s
same,lifetime on the microtubule (median),[4],9 s
same,lifetime on the microtubule (median),[5],1.8 s
same,lifetime on the microtubule (median),[6],4.9 s
same,lifetime on the microtubule (median),[7],4.2 s
same,lifetime on the microtubule (median),[8],1.5 s
same,lifetime on the microtubule (median),[9],3.9 s
same,lifetime on the microtubule (median),[10],17.9 s
same,lifetime on the microtubule (median),[11],3.6 s
same,lifetime on the microtubule (median),[12],1.2 s
